Test results reported in patent publication US20220323614A1, “KRAS-SPECIFIC CYCLIC PEPTIDES, COMPOSITIONS, AND METHODS OF USING AND MAKING” (Indi Molecular, Inc., priority 2021, published 2022).
Primed or numbered codes have the meaning given here. Where no end group is shown, it is not given here. [ ]: non-standard residue; d: D form. The star is where a group is joined. Az2 = aminoazidobutanoic acid, ring closure; dPhe(4-Br) = N[C@H](Cc1ccc(Br)cc1)C(=O)O; 2Nal = N[C@@H](Cc1ccc2ccccc2c1)C(=O)O; Palmitoyl = CCCCCCCCCCCCCCCC(=O)*; Tic = O=C(O)[C@@H]1Cc2ccccc2CN1; Cha = N[C@@H](CC1CCCCC1)C(=O)O; Dab = NCC[C@H](N)C(=O)O; Thz′ = not defined here; Phf = not defined here

Tests used:
[1] = target: KRAS (G12D) as expressed in G12D-mutant cancer cells (AsPC-1, SW 1990, pancreatic cancer cells) (human) (UniProt P01116); experiment: cell-based or functional assay
[2] = target: KRAS (WT) as expressed in BxPC-3 cells (human) (UniProt P01116); experiment: cell-based or functional assay

B1: Ac-(Tic)kyf-Lys(Pal) (peptide)
peptide: Ac-[Tic][dK][dY][dF]K(Palmitoyl)
modifications: triazole (positions not given here); also: cyclic via triazole, ring-closing residues not given here
- pERK G12D (AsPC-1 at 4 µM for 12 hours) [1]: 0.974
- pERK WT (BxPC-3 at 4 µM for 12 hours) [2]: 0.806

B2: Ac-(Thz)kyf-Lys(Pal) (peptide)
peptide: Ac-[Thz′][dK][dY][dF]K(Palmitoyl)
modifications: triazole (positions not given here); reading uncertain; also: cyclic via triazole, ring-closing residues not given here, printed as Ac-(Thz)kyf-Lys(Pal)
- pERK G12D (AsPC-1 at 4 µM for 12 hours) [1]: 1.11
- pERK WT (BxPC-3 at 4 µM for 12 hours) [2]: 0.851

B3: Ac-wky(4-F-f)-Lys(Pal) (peptide)
peptide: Ac-[dW][dK][dY][4‑F‑f]K(Palmitoyl)
modifications: triazole (positions not given here); also: cyclic via triazole, ring-closing residues not given here
- pERK G12D (AsPC-1 at 4 µM for 12 hours) [1]: 1.14
- pERK WT (BxPC-3 at 4 µM for 12 hours) [2]: 1.71

B4: Ac-wky(4-Br-f)-Lys(Pal) (peptide)
peptide: Ac-[dW][dK][dY][dPhe(4-Br)]K(Palmitoyl)
modifications: triazole (positions not given here); also: cyclic via triazole, ring-closing residues not given here
- pERK G12D (AsPC-1 at 4 µM for 12 hours) [1]: 0.606
- pERK WT (BxPC-3 at 4 µM for 12 hours) [2]: 1.09

B5: Ac-wky(Phf)-Lys(Pal) (peptide)
peptide: Ac-[dW][dK][dY][Phf]K(Palmitoyl)
modifications: triazole (positions not given here); reading uncertain; also: cyclic via triazole, ring-closing residues not given here, printed as Ac-wky(Phf)-Lys(Pal)
- pERK G12D (AsPC-1 at 4 µM for 12 hours) [1]: 1.32
- pERK WT (BxPC-3 at 4 µM for 12 hours) [2]: 0.757

B6: Ac-wk(4-Br-f)f-Lys(Pal) (peptide)
peptide: Ac-[dW][dK][dPhe(4-Br)][dF]K(Palmitoyl)
modifications: triazole (positions not given here); also: cyclic via triazole, ring-closing residues not given here
- pERK G12D (AsPC-1 at 4 µM for 12 hours) [1]: 0.776
- pERK WT (BxPC-3 at 4 µM for 12 hours) [2]: 0.895

B7: Ac-wkyf-Az2-Lys(Pal) (peptide)
peptide: Ac-[dW][dK][dY][dF][Az2]K(Palmitoyl)
modifications: triazole (positions not given here); also: cyclic via triazole, other ring-closing residue not given here
- pERK G12D (AsPC-1 at 4 µM for 12 hours) [1]: 0.794
- pERK WT (BxPC-3 at 4 µM for 12 hours) [2]: 1.16

B8: Ac-w(Dab)yf-Lys(Pal) (peptide)
peptide: Ac-[dW][Dab][dY][dF]K(Palmitoyl)
modifications: triazole (positions not given here); also: cyclic via triazole, ring-closing residues not given here
- pERK G12D (AsPC-1 at 4 µM for 12 hours) [1]: 0.625
- pERK WT (BxPC-3 at 4 µM for 12 hours) [2]: 0.982

B9: Ac-wky(4-Cl-f)-Lys(Pal) (peptide)
peptide: Ac-[dW][dK][dY][4‑Cl‑f]K(Palmitoyl)
modifications: triazole (positions not given here); also: cyclic via triazole, ring-closing residues not given here
- pERK G12D (AsPC-1 at 4 µM for 12 hours) [1]: 0.8
- pERK WT (BxPC-3 at 4 µM for 12 hours) [2]: 1.05

B10: Ac-wky(Cha)-Lys(Pal) (peptide)
peptide: Ac-[dW][dK][dY][Cha]K(Palmitoyl)
modifications: triazole (positions not given here); also: cyclic via triazole, ring-closing residues not given here
- pERK G12D (AsPC-1 at 4 µM for 12 hours) [1]: 1.13
- pERK WT (BxPC-3 at 4 µM for 12 hours) [2]: 1.27

B11: Ac-wky(2-Nal)-Lys(Pal) (peptide)
peptide: Ac-[dW][dK][dY][2Nal]K(Palmitoyl)
modifications: triazole (positions not given here); also: cyclic via triazole, ring-closing residues not given here
- pERK G12D (AsPC-1 at 4 µM for 12 hours) [1]: 0.71
- pERK WT (BxPC-3 at 4 µM for 12 hours) [2]: 0.871
